Source: patent US20240000957A1 (published 2024)

T1: Rat EphB1 Fc fusion (Rat, UniProt P09759 18-540, limits assumed)
T1 construct: SPR; R&D Systems 1596-B1
T1 sequence (looked up): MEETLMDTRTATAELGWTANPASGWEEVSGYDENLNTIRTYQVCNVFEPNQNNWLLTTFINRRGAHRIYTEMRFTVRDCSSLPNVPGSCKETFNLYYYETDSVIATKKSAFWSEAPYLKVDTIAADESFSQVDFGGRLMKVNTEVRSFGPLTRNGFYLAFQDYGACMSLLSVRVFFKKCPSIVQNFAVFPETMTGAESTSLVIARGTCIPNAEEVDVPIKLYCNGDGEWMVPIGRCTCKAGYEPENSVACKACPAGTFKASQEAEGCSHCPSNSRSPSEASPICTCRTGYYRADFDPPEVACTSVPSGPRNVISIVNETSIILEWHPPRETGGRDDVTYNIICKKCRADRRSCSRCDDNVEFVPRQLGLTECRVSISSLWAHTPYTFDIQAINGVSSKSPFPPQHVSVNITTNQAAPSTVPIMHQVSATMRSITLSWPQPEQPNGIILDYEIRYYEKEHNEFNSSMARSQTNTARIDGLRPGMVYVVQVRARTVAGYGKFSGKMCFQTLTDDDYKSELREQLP

T2: Human EphA3 Fc fusion (Human, UniProt P29320 21-541, limits assumed)
T2 construct: SPR; R&D Systems 6444-A3
T2 sequence (looked up): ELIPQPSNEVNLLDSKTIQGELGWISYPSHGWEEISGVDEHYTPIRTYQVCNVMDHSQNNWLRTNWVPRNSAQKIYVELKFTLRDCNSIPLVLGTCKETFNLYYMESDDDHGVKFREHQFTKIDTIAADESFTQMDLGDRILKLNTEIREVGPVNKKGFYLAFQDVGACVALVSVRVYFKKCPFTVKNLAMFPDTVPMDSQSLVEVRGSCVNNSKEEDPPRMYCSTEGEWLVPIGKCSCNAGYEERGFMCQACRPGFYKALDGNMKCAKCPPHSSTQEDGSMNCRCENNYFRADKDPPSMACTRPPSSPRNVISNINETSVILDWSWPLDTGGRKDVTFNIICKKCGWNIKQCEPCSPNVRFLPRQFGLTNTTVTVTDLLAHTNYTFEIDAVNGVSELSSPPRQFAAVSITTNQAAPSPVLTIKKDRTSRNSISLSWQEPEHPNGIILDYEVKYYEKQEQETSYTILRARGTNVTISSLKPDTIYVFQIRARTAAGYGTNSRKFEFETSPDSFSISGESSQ

T3: Rat EphA3 Fc fusion (Rat, UniProt O08680 21-541)
T3 construct: SPR; Sino Biologics 80465-R02H
T3 sequence (looked up): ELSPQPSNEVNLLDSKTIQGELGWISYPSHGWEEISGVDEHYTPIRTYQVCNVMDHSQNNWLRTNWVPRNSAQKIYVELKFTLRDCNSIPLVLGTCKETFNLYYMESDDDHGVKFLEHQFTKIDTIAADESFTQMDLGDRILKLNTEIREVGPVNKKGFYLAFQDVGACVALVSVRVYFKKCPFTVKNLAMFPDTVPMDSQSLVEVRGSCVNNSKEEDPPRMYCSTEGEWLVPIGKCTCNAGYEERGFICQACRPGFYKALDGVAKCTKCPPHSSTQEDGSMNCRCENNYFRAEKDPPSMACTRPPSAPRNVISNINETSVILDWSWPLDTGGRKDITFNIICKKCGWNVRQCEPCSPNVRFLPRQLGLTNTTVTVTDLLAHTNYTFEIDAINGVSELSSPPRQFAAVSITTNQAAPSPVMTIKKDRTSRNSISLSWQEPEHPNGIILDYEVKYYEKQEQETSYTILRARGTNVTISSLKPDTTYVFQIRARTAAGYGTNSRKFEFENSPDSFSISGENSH

T4: Mouse EphA3 Fc fusion (Mouse, UniProt P29319 21-540)
T4 construct: SPR; Sino Biologics 51122-M02H
T4 sequence (looked up): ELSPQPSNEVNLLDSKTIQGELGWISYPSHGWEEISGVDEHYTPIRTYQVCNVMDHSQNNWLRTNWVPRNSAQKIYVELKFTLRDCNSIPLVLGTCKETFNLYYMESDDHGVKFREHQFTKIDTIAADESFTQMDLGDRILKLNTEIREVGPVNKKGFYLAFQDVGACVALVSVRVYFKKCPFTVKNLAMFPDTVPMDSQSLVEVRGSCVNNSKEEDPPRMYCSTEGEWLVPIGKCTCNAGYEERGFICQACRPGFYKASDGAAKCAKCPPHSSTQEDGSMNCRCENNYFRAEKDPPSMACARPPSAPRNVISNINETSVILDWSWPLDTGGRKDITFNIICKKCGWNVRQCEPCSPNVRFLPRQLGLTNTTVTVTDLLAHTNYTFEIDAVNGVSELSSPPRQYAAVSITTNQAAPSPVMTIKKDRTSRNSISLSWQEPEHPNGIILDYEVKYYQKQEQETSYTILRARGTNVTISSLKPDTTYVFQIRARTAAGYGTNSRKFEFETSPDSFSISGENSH

T5: Mouse EphA3 Fc fusion (Mouse, UniProt P29319 21-540)
T5 construct: Bought Fc fusion; also called Sino Biologics 51122-M02H; not shown: Fc of the bought fusion
T5 sequence (looked up): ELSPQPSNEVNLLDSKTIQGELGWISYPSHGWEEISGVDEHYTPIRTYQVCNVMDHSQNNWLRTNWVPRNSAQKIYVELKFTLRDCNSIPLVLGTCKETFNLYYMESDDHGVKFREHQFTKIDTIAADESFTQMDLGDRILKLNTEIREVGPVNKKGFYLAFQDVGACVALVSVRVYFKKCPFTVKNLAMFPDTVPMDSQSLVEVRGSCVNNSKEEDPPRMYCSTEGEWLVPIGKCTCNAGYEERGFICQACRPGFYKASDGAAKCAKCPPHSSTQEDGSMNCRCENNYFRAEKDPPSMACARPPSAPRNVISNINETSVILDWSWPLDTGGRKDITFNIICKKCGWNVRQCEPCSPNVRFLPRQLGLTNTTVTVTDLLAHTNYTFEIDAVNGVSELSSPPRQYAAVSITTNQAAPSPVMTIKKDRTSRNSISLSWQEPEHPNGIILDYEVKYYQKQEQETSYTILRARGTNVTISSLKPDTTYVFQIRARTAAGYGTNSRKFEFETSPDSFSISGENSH

T6: Rat EphA3 Fc fusion (Rat, UniProt O08680 21-541)
T6 construct: Bought Fc fusion; also called Sino Biologics 80465-R02H; not shown: Fc of the bought fusion
T6 sequence (looked up): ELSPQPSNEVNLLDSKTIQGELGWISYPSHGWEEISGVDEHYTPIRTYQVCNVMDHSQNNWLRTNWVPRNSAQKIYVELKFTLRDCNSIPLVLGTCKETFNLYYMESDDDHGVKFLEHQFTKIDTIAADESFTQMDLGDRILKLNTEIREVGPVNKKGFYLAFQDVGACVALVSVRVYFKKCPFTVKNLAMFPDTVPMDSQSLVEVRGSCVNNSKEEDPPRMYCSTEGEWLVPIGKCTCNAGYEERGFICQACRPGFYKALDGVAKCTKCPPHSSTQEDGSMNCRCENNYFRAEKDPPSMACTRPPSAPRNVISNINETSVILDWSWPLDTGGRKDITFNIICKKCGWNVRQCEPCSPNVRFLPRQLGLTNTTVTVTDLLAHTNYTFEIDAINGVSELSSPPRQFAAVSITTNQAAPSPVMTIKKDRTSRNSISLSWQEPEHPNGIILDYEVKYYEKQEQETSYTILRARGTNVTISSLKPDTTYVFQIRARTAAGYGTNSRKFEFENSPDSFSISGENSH


Legend:
Rat EphB1 Fc fusion = target: T1, Rat EphB1 Fc fusion; experiment: SPR
Human EphA3 Fc fusion = target: T2, Human EphA3 Fc fusion; experiment: SPR
Rat EphA3 Fc fusion [1] = target: T3, Rat EphA3 Fc fusion; experiment: SPR
Mouse EphA3 Fc fusion [2] = target: T4, Mouse EphA3 Fc fusion; experiment: SPR
Mouse EphA2 Fc fusion = target: T7, Mouse EphA2 Fc fusion (Mouse, UniProt Q03145 26-535, limits assumed); experiment: SPR, Fc-tagged EphA2 captured by anti-human IgG
T7 construct: Bought Fc fusion; also called R&D Systems 639-A2; not shown: Fc of the bought fusion

Mouse EphA4 Fc fusion = target: T8, Mouse EphA4 Fc fusion (Mouse, UniProt Q03137 20-547); experiment: SPR, Fc-tagged protein captured by anti-human IgG
T8 construct: Bought Fc fusion; also called Sino Biologics 50575-M02H; not shown: Fc of the bought fusion

Mouse EphA3 Fc fusion [3] = target: T5, Mouse EphA3 Fc fusion; experiment: SPR, Fc-tagged protein captured by anti-human IgG
Rat EphA3 Fc fusion [4] = target: T6, Rat EphA3 Fc fusion; experiment: SPR, Fc-tagged protein captured by anti-human IgG
Human EphA2 = target: T9, Human EphA2 (Human, UniProt P29317 24-537, limits assumed, biotinylated, 0.95 mol biotin/monomer); experiment: SPR, biotinylated EphA2 on streptavidin chip
T9 construct: also called Eph receptor tyrosine kinase A2

Rat EphA2 = Rat EphA2 (Rat, UniProt D3ZBN3 23-538, biotinylated, 1.4 mol biotin/monomer); experiment: SPR, biotinylated EphA2 on streptavidin chip

T7 sequence (Q03145 26-535 limits assumed): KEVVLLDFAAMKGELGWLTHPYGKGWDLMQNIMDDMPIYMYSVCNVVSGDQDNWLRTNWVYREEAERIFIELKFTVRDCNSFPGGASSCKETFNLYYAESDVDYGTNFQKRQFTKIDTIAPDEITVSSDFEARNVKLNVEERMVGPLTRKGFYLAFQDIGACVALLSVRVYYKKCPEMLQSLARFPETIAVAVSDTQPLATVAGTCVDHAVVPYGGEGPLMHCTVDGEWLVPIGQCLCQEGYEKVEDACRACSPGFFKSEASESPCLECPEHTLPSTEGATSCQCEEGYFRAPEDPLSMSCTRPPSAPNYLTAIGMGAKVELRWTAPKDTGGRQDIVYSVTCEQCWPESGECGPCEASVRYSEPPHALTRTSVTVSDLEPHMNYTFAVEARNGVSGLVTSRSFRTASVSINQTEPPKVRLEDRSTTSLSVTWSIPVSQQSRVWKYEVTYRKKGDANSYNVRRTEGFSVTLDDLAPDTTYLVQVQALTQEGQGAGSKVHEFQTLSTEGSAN
T9 sequence (P29317 24-537 limits assumed): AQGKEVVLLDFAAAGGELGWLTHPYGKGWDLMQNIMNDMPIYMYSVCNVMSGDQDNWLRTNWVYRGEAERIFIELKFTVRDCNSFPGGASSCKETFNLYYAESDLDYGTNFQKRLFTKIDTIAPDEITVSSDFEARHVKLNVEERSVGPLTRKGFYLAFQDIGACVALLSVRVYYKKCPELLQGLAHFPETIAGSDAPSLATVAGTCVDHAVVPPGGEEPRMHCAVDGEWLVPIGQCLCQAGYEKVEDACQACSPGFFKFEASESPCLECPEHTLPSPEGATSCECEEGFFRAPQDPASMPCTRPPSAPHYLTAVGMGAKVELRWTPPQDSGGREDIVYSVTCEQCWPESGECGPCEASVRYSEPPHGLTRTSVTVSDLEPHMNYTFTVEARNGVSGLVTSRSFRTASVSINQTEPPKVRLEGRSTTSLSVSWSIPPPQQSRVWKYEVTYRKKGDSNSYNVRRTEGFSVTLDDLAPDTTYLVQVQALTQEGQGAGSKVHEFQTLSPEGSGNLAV
T8 sequence (Q03137 20-547 limits assumed): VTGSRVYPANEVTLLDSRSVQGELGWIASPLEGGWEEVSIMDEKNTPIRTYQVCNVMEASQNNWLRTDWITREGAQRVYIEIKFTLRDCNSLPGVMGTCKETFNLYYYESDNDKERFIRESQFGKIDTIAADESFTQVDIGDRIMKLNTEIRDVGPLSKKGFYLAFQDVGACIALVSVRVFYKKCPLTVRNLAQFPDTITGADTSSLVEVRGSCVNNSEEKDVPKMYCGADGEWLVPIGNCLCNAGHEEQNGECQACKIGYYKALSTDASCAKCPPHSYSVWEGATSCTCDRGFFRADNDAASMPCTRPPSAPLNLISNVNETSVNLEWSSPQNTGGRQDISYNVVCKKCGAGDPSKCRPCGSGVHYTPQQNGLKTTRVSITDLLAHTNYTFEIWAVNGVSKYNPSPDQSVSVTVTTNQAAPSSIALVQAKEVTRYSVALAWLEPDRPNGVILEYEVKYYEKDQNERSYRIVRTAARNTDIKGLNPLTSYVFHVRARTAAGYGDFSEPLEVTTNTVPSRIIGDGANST

Row | Kd (Mouse EphA2 Fc fusion) | t1/2 (Mouse EphA2 Fc fusion) | binding result (Mouse EphA4 Fc fusion) | binding result (Mouse EphA3 Fc fusion [3]) | binding result (Rat EphA3 Fc fusion [4]) | Kd (Human EphA2) | t1/2 (Human EphA2) | Kd (Rat EphA2) | t1/2 (Rat EphA2) | Binder | binding result (Rat EphB1 Fc fusion) | binding result (Human EphA3 Fc fusion) | binding result (Rat EphA3 Fc fusion [1]) | binding result (Mouse EphA3 Fc fusion [2])
1 |  |  |  |  |  |  |  |  |  | AXDCPLVNPLCLHPGWTC (not fully specified; as BCY6014 (N-terminal (β-Ala)-Sar10; HArg; TATA scaffold on the 3 Cys) + ValCit-MMAE, Bicycle drug conjugate (BDC)) | no binding | no binding | no binding | no binding
2 |  |  |  |  |  |  |  |  |  | AXDCPLVNPLCLHPGWTC (not fully specified; as BCY6014 (N-terminal (β-Ala)-Sar10; HArg; TATA scaffold on the 3 Cys) + DM1-SS(SO3H)-, Bicycle drug conjugate (BDC)) | no binding | no binding | no binding | no binding
3 | 21.8 nM | 1.8 min | no binding (tested: 20 µM) | no binding (tested: 20 µM) | no binding (tested: 20 µM) | 3.41 nM | 3.5 min | 166 nM | 2.6 min | AXDCPLVNPLCLHPGWTC (not fully specified; N-terminal (β-Ala)-Sar10 spacer precedes SEQ ID NO: 11; HArg (homoarginine) at residue 2 of SEQ ID NO: 11; three Cys cyclised on the TATA scaffold; ValCit-MMAE (MMAE-PABC-Cit-Val-glutarate) on the N-terminal amine) |  |  |  | 
4 | 18.3 nM | 1.9 min | no binding (tested: 20 µM) | no binding (tested: 20 µM) | no binding (tested: 20 µM) | 2.42 nM | 4.8 min | 28.8 nM | 3.2 min | AXDCPLVNPLCLHPGWTC (not fully specified; N-terminal (β-Ala)-Sar10 spacer precedes SEQ ID NO: 11; HArg (homoarginine) at residue 2 of SEQ ID NO: 11; three Cys cyclised on the TATA scaffold; DM1-SS(SO3H)- (DM1-SO3H-SPDB) on the N-terminal amine) |  |  |  | 
